Results as given in patent US20230002480A1.

How the values were obtained:
Experiment in all cases: cell-based or functional assay
[1] = target: HIV-1 Env of pseudovirus 0260.v5.c36 (HIV-1)
[2] = target: HIV-1 Env of pseudovirus 0815.v3.c3 (HIV-1)
[3] = target: HIV-1 Env of pseudovirus 1394C9G1(Rev-) (HIV-1)
[4] = target: HIV-1 Env of pseudovirus 191084 B7-19 (HIV-1)
[5] = target: HIV-1 Env of pseudovirus 231965.c01 (HIV-1)
[6] = target: HIV-1 Env of pseudovirus 246F C1G (HIV-1)
[7] = target: HIV-1 Env of pseudovirus 3016.v5.c45 (HIV-1)
[8] = target: HIV-1 Env of pseudovirus 3365.v2.c2 (HIV-1)
[9] = target: HIV-1 Env of pseudovirus 3817.v2.c59 (HIV-1)
[10] = target: HIV-1 Env of pseudovirus 6480.v4.c25 (HIV-1)
[11] = target: HIV-1 Env of pseudovirus 6811.v7.c18 (HIV-1)
[12] = target: HIV-1 Env of pseudovirus 6952.v1.c20 (HIV-1)
[13] = target: HIV-1 Env of pseudovirus 7030102001E5(Rev-) (HIV-1)
[14] = target: HIV-1 Env of pseudovirus 89-F1_2_25 (HIV-1)
[15] = target: HIV-1 Env of pseudovirus AC10.0.29 (HIV-1)
[16] = target: HIV-1 Env of pseudovirus BF1266.431a (HIV-1)
[17] = target: HIV-1 Env of pseudovirus BJOX010000.06.2 (HIV-1)
[18] = target: HIV-1 Env of pseudovirus BJOX015000.11.5 (HIV-1)
[19] = target: HIV-1 Env of pseudovirus BJOX025000.01.1 (HIV-1)
[20] = target: HIV-1 Env of pseudovirus CAAN5342.A2 (HIV-1)
[21] = target: HIV-1 Env of pseudovirus Ce703010054_2A2 (HIV-1)
[22] = target: HIV-1 Env of pseudovirus Du172.17 (HIV-1)
[23] = target: HIV-1 Env of pseudovirus Du422.1 (HIV-1)
[24] = target: HIV-1 Env of pseudovirus HIV-16055-2.3 (HIV-1)
[25] = target: HIV-1 Env of pseudovirus P0402_c2_11 (HIV-1)
[26] = target: HIV-1 Env of pseudovirus Q23.17 (HIV-1)
[27] = target: HIV-1 Env of pseudovirus R3265.c06 (HIV-1)
[28] = target: HIV-1 Env of pseudovirus REJO4541.67 (HIV-1)
[29] = target: HIV-1 Env of pseudovirus SC422661.8 (HIV-1)
[30] = target: HIV-1 Env of pseudovirus T250-4 (HIV-1)
[31] = target: HIV-1 Env of pseudovirus T278-50 (HIV-1)
[32] = target: HIV-1 Env of pseudovirus THRO4156.18 (HIV-1)
[33] = target: HIV-1 Env of pseudovirus WITO4160.33 (HIV-1)
[34] = target: HIV-1 Env of pseudovirus X1193_c1 (HIV-1)
[35] = target: HIV-1 Env of pseudovirus X1254_c3 (HIV-1)
[36] = target: HIV-1 Env of pseudovirus ZM197M.PB7 (HIV-1)
[37] = target: HIV-1 Env of pseudovirus ZM53M.PB12 (HIV-1)

Q: With N49P6 (antibody) as the substance, how does the IC50 [1] read?
A: 0.485 mg/L

Q: And the IC80 [1]?
A: 1.55 mg/L

Q: And the MPI [1]?
A: 100

Q: What about the IC50 [2] of the same substance?
A: 0.194 mg/L

Q: What about the IC80 [2] of the same substance?
A: 1.25 mg/L

Q: What about the MPI [2] of the same substance?
A: 100

Q: What about the IC50 [3] of the same substance?
A: 17.5 mg/L

Q: What about the IC80 [3] of the same substance?
A: > 50 mg/L

Q: And the MPI [3]?
A: 80

Q: And the IC50 [4]?
A: 0.062 mg/L

Q: What about the IC80 [4] of the same substance?
A: 0.257 mg/L

Q: And the MPI [4]?
A: 100

Q: What about the IC50 [5] of the same substance?
A: 9.24 mg/L

Q: And the IC80 [5]?
A: 39.4 mg/L

Q: What about the MPI [5] of the same substance?
A: 87

Q: What about the IC50 [6] of the same substance?
A: 0.513 mg/L

Q: What about the IC80 [6] of the same substance?
A: 2.51 mg/L

Q: And the MPI [6]?
A: 99

Q: What about the IC50 [7] of the same substance?
A: 21.7 mg/L

Q: What about the IC80 [7] of the same substance?
A: > 50 mg/L

Q: And the MPI [7]?
A: 72

Q: And the IC50 [8]?
A: 0.129 mg/L

Q: What about the IC80 [8] of the same substance?
A: 0.347 mg/L

Q: What about the MPI [8] of the same substance?
A: 100

Q: And the IC50 [9]?
A: 16.9 mg/L

Q: What about the IC80 [9] of the same substance?
A: > 50 mg/L

Q: And the MPI [9]?
A: 78

Q: What about the IC50 [10] of the same substance?
A: 0.089 mg/L

Q: What about the IC80 [10] of the same substance?
A: 0.427 mg/L

Q: And the MPI [10]?
A: 100

Q: And the IC50 [11]?
A: 0.238 mg/L

Q: And the IC80 [11]?
A: 1.01 mg/L

Q: What about the MPI [11] of the same substance?
A: 100

Q: And the IC50 [12]?
A: 16.9 mg/L

Q: And the IC80 [12]?
A: > 50 mg/L

Q: What about the MPI [12] of the same substance?
A: 78

Q: What about the IC50 [13] of the same substance?
A: 0.354 mg/L

Q: What about the IC80 [13] of the same substance?
A: 1.17 mg/L

Q: What about the MPI [13] of the same substance?
A: 100

Q: What about the IC50 [14] of the same substance?
A: 33.6 mg/L

Q: What about the IC80 [14] of the same substance?
A: > 50 mg/L

Q: What about the MPI [14] of the same substance?
A: 61

Q: And the IC50 [15]?
A: 32.3 mg/L

Q: And the IC80 [15]?
A: > 50 mg/L

Q: And the MPI [15]?
A: 67

Q: And the IC50 [16]?
A: 0.083 mg/L

Q: What about the IC80 [16] of the same substance?
A: 0.283 mg/L

Q: And the MPI [16]?
A: 100

Q: And the IC50 [17]?
A: 0.681 mg/L

Q: And the IC80 [17]?
A: 3.53 mg/L

Q: What about the MPI [17] of the same substance?
A: 100

Q: And the IC50 [18]?
A: 0.07 mg/L

Q: And the IC80 [18]?
A: 0.312 mg/L

Q: And the MPI [18]?
A: 100

Q: What about the IC50 [19] of the same substance?
A: 14.9 mg/L

Q: And the IC80 [19]?
A: > 50 mg/L

Q: And the MPI [19]?
A: 78

Q: What about the IC50 [20] of the same substance?
A: 0.657 mg/L

Q: And the IC80 [20]?
A: 1.83 mg/L

Q: And the MPI [20]?
A: 100

Q: What about the IC50 [21] of the same substance?
A: 0.245 mg/L

Q: And the IC80 [21]?
A: 0.841 mg/L

Q: And the MPI [21]?
A: 100

Q: What about the IC50 [22] of the same substance?
A: 20.8 mg/L

Q: What about the IC80 [22] of the same substance?
A: > 50 mg/L

Q: What about the MPI [22] of the same substance?
A: 74

Q: And the IC50 [23]?
A: 44 mg/L

Q: And the IC80 [23]?
A: > 50 mg/L

Q: And the MPI [23]?
A: 57

Q: And the IC50 [24]?
A: 0.117 mg/L

Q: What about the IC80 [24] of the same substance?
A: 0.586 mg/L

Q: What about the MPI [24] of the same substance?
A: 100

Q: What about the IC50 [25] of the same substance?
A: 3.54 mg/L

Q: And the IC80 [25]?
A: 19 mg/L

Q: What about the MPI [25] of the same substance?
A: 99

Q: What about the IC50 [26] of the same substance?
A: 0.052 mg/L

Q: And the IC80 [26]?
A: 0.185 mg/L

Q: What about the MPI [26] of the same substance?
A: 100

Q: And the IC50 [27]?
A: 0.101 mg/L

Q: And the IC80 [27]?
A: 0.443 mg/L

Q: And the MPI [27]?
A: 100

Q: And the IC50 [28]?
A: 0.066 mg/L

Q: And the IC80 [28]?
A: 0.215 mg/L

Q: And the MPI [28]?
A: 100

Q: And the IC50 [29]?
A: 0.129 mg/L

Q: What about the IC80 [29] of the same substance?
A: 0.36 mg/L

Q: And the MPI [29]?
A: 100

Q: What about the IC50 [30] of the same substance?
A: 21.9 mg/L

Q: What about the IC80 [30] of the same substance?
A: > 50 mg/L

Q: What about the MPI [30] of the same substance?
A: 68

Q: What about the IC50 [31] of the same substance?
A: 25.7 mg/L

Q: And the IC80 [31]?
A: > 50 mg/L

Q: And the MPI [31]?
A: 67

Q: What about the IC50 [32] of the same substance?
A: 12.5 mg/L

Q: What about the IC80 [32] of the same substance?
A: 38.4 mg/L

Q: What about the MPI [32] of the same substance?
A: 89

Q: And the IC50 [33]?
A: 0.096 mg/L

Q: What about the IC80 [33] of the same substance?
A: 0.277 mg/L

Q: And the MPI [33]?
A: 100

Q: And the IC50 [34]?
A: 0.074 mg/L

Q: What about the IC80 [34] of the same substance?
A: 0.224 mg/L

Q: What about the MPI [34] of the same substance?
A: 100

Q: What about the IC50 [35] of the same substance?
A: 15.7 mg/L

Q: And the IC80 [35]?
A: 34.2 mg/L

Q: What about the MPI [35] of the same substance?
A: 91

Q: And the IC50 [36]?
A: 3 mg/L

Q: What about the IC80 [36] of the same substance?
A: 12.4 mg/L

Q: What about the MPI [36] of the same substance?
A: 98

Q: And the IC50 [37]?
A: 0.538 mg/L

Q: What about the IC80 [37] of the same substance?
A: 1.71 mg/L

Q: What about the MPI [37] of the same substance?
A: 100
